From publication PMC3017548

Tests used:
Experiment in all cases: filter binding
[1] = tested on: Gadd45a G39A (Xenopus tropicalis); conditions: loss of discrimination between vector and total RNA in competition; 10 mM Tris-HCl pH 7.4, 10 mM KCl, 1 mM MgCl2; 2.5 or 1.3 uM protein, ~2 ng 32P-MCS RNA, 20 min; temperature not given; nitrocellulose filter
[2] = tested on: Gadd45a K45A (Xenopus tropicalis); conditions: loss of discrimination between vector and total RNA in competition; 10 mM Tris-HCl pH 7.4, 10 mM KCl, 1 mM MgCl2; 2.5 or 1.3 uM protein, ~2 ng 32P-MCS RNA, 20 min; temperature not given; nitrocellulose filter
[3] = tested on: Gadd45a R34G (Xenopus tropicalis); conditions: 10 mM Tris-HCl pH 7.4, 10 mM KCl, 1 mM MgCl2; 2.5 or 1.3 uM protein, ~2 ng 32P-MCS RNA, 20 min; temperature not given; nitrocellulose filter
[4] = tested on: Gadd45a V49R (Xenopus tropicalis); conditions: 10 mM Tris-HCl pH 7.4, 10 mM KCl, 1 mM MgCl2; 2.5 or 1.3 uM protein, ~2 ng 32P-MCS RNA, 20 min; temperature not given; nitrocellulose filter

MCS RNA (multiple cloning site transcript)
binding signal (fold of wild type binding (comparable)) [1]: 1 | binding signal (fold of wild type binding (comparable)) [2]: 1 | binding signal (fold of wild type binding (comparable)) [3]: 1 | binding signal (fold of wild type binding) [4]: 3
